This data set concerns the molecule itself. As to the kind of experiment: cross-linking; purified protein cross-linked with 0.03% glutaraldehyde, analysed by SDS-PAGE.

B1: full-length PARN, recombinant (enzyme, human, UniProt O95453 1-639, looked up)
chain: MEIIRSNFKSNLHKVYQAIEEADFFAIDGEFSGISDGPSVSALTNGFDTPEERYQKLKKHSMDFLLFQFGLCTFKYDYTDSKYITKSFNFYVFPKPFNRSSPDVKFVCQSSSIDFLASQGFDFNKVFRNGIPYLNQEEERQLREQYDEKRSQANGAGALSYVSPNTSKCPVTIPEDQKKFIDQVVEKIEDLLQSEENKNLDLEPCTGFQRKLIYQTLSWKYPKGIHVETLETEKKERYIVISKVDEEERKRREQQKHAKEQEELNDAVGFSRVIHAIANSGKLVIGHNMLLDVMHTVHQFYCPLPADLSEFKEMTTCVFPRLLDTKLMASTQPFKDIINNTSLAELEKRLKETPFNPPKVESAEGFPSYDTASEQLHEAGYDAYITGLCFISMANYLGSFLSPPKIHVSARSKLIEPFFNKLFLMRVMDIPYLNLEGPDLQPKRDHVLHVTFPKEWKTSDLYQLFSAFGNIQISWIDDTSAFVSLSQPEQVKIAVNTSKYAESYRIQTYAEYMGRKQEEKQIKRKWTEDSWKEADSKRLNPQCIPYTLQNHYYRNNSFTAPSTVGKRNLSPSQEEAGLEDGVSGEISDTELEQTDSCAEPLSEGRKKAKKLKRMKKELSPAGSISKNSPATLFEVPDTW
notes: poly(A)-specific ribonuclease (PARN), human, full length; cloned in pET-28a
Consider B1, for which the binding result is listed as “binds”.
